Data set [1] concerns the molecule itself. As to the kind of experiment: co-sedimentation; centrifugation assay of phase separation: FG domain diluted into 20 mM NaPi pH 6.8, 5 mM DTT, NaCl, concentration and temperature as in the figures; 21,130 × g, 30 min; pellet (FG phase) and supernatant by SDS-PAGE/Coomassie; saturation concentration = concentration left in the supernatant (Formula Set 2).
Data set [2] concerns the molecule itself. The experiment in a line: dynamic light scattering; self-association as LCST-type phase separation; prf.GLFG_(52×12) diluted into 20 mM NaPi pH 6.8 with 75-1200 mM NaCl, temperature raised by 1 °C per min from 2 to 40 °C; van't Hoff analysis (Formula Set 1).

B1: prf.GLFG_(37×12) (domain or fragment)
chain: GGLFGGNTQPATGGLFGGNTQPATGGLFGGNTQPATGGLFGGNTQPATGGLFGGNTQPATGGLFGGNTQPATGGLFGGNTQPATGGLFGGNTQPATGGLFGGNTQPATGGLFGGNTQPATGGLFGGNTQPATGGLFGGNTQPATGGLFGGNTQPATGGLFGGNTQPATGGLFGGNTQPATGGLFGGNTQPATGGLFGGNTQPATGGLFGGNTQPATGGLFGGNTQPATGGLFGGNTQPATGGLFGGNTQPATGGLFGGNTQPATGGLFGGNTQPATGGLFGGNTQPATGGLFGGNTQPATGGLFGGNTQPATGGLFGGNTQPATGGLFGGNTQPATGGLFGGNTQPATGGLFGGNTQPATGGLFGGNTQPATGGLFGGNTQPATGGLFGGNTQPATGGLFGGNTQPATGGLFGGNTQPATGGLFGGNTQPATGGLFGGNTQPAT
notes: also called N = 37; 37× repeats; not shown: histidine tag with a SUMO cleavage site, N-terminal, cleaved
For the protein B1, the binding result in data set [1] was “binds”.

B2: prf.GLFG_(70×12) (domain or fragment)
chain: GGLFGGNTQPATGGLFGGNTQPATGGLFGGNTQPATGGLFGGNTQPATGGLFGGNTQPATGGLFGGNTQPATGGLFGGNTQPATGGLFGGNTQPATGGLFGGNTQPATGGLFGGNTQPATGGLFGGNTQPATGGLFGGNTQPATGGLFGGNTQPATGGLFGGNTQPATGGLFGGNTQPATGGLFGGNTQPATGGLFGGNTQPATGGLFGGNTQPATGGLFGGNTQPATGGLFGGNTQPATGGLFGGNTQPATGGLFGGNTQPATGGLFGGNTQPATGGLFGGNTQPATGGLFGGNTQPATGGLFGGNTQPATGGLFGGNTQPATGGLFGGNTQPATGGLFGGNTQPATGGLFGGNTQPATGGLFGGNTQPATGGLFGGNTQPATGGLFGGNTQPATGGLFGGNTQPATGGLFGGNTQPATGGLFGGNTQPATGGLFGGNTQPATGGLFGGNTQPATGGLFGGNTQPATGGLFGGNTQPATGGLFGGNTQPATGGLFGGNTQPATGGLFGGNTQPATGGLFGGNTQPATGGLFGGNTQPATGGLFGGNTQPATGGLFGGNTQPATGGLFGGNTQPATGGLFGGNTQPATGGLFGGNTQPATGGLFGGNTQPATGGLFGGNTQPATGGLFGGNTQPATGGLFGGNTQPATGGLFGGNTQPATGGLFGGNTQPATGGLFGGNTQPATGGLFGGNTQPATGGLFGGNTQPATGGLFGGNTQPATGGLFGGNTQPATGGLFGGNTQPATGGLFGGNTQPATGGLFGGNTQPATGGLFGGNTQPATGGLFGGNTQPATGGLFGGNTQPATGGLFGGNTQPATGGLFGGNTQPATGGLFGGNTQPAT
notes: also called N = 70; not shown: histidine tag with a SUMO cleavage site, N-terminal, cleaved
B2: the binding result in data set [1] is given as “binds”.

B3: prf.GLFG_(52×12) (domain or fragment)
chain: GGLFGGNTQPATGGLFGGNTQPATGGLFGGNTQPATGGLFGGNTQPATGGLFGGNTQPATGGLFGGNTQPATGGLFGGNTQPATGGLFGGNTQPATGGLFGGNTQPATGGLFGGNTQPATGGLFGGNTQPATGGLFGGNTQPATGGLFGGNTQPATGGLFGGNTQPATGGLFGGNTQPATGGLFGGNTQPATGGLFGGNTQPATGGLFGGNTQPATGGLFGGNTQPATGGLFGGNTQPATGGLFGGNTQPATGGLFGGNTQPATGGLFGGNTQPATGGLFGGNTQPATGGLFGGNTQPATGGLFGGNTQPATGGLFGGNTQPATGGLFGGNTQPATGGLFGGNTQPATGGLFGGNTQPATGGLFGGNTQPATGGLFGGNTQPATGGLFGGNTQPATGGLFGGNTQPATGGLFGGNTQPATGGLFGGNTQPATGGLFGGNTQPATGGLFGGNTQPATGGLFGGNTQPATGGLFGGNTQPATGGLFGGNTQPATGGLFGGNTQPATGGLFGGNTQPATGGLFGGNTQPATGGLFGGNTQPATGGLFGGNTQPATGGLFGGNTQPATGGLFGGNTQPATGGLFGGNTQPATGGLFGGNTQPATGGLFGGNTQPATGGLFGGNTQPAT
notes: Engineered after the MacNup98A FG domain, GLEBS deleted; also called perfectly repeated FG domain; N = 52; source: E. coli NEB Express, extracted from inclusion bodies, purified (Ni chromatography, SUMO protease cleavage, lyophilized); not shown: histidine tag with a SUMO cleavage site, N-terminal, cleaved
Take B3: the “dH of phase separation when [NaCl] = 0 (van't Hoff)” value in data set [2] is 24.4 kcal/mol.

B4: prf.GLFG_(44×12) (domain or fragment)
chain: GGLFGGNTQPATGGLFGGNTQPATGGLFGGNTQPATGGLFGGNTQPATGGLFGGNTQPATGGLFGGNTQPATGGLFGGNTQPATGGLFGGNTQPATGGLFGGNTQPATGGLFGGNTQPATGGLFGGNTQPATGGLFGGNTQPATGGLFGGNTQPATGGLFGGNTQPATGGLFGGNTQPATGGLFGGNTQPATGGLFGGNTQPATGGLFGGNTQPATGGLFGGNTQPATGGLFGGNTQPATGGLFGGNTQPATGGLFGGNTQPATGGLFGGNTQPATGGLFGGNTQPATGGLFGGNTQPATGGLFGGNTQPATGGLFGGNTQPATGGLFGGNTQPATGGLFGGNTQPATGGLFGGNTQPATGGLFGGNTQPATGGLFGGNTQPATGGLFGGNTQPATGGLFGGNTQPATGGLFGGNTQPATGGLFGGNTQPATGGLFGGNTQPATGGLFGGNTQPATGGLFGGNTQPATGGLFGGNTQPATGGLFGGNTQPATGGLFGGNTQPATGGLFGGNTQPATGGLFGGNTQPAT
notes: also called N = 44; not shown: histidine tag with a SUMO cleavage site, N-terminal, cleaved
Take B4: the binding result in data set [1] was “binds”.

B5: prf.GLFG_(26×12) (domain or fragment)
chain: GGLFGGNTQPATGGLFGGNTQPATGGLFGGNTQPATGGLFGGNTQPATGGLFGGNTQPATGGLFGGNTQPATGGLFGGNTQPATGGLFGGNTQPATGGLFGGNTQPATGGLFGGNTQPATGGLFGGNTQPATGGLFGGNTQPATGGLFGGNTQPATGGLFGGNTQPATGGLFGGNTQPATGGLFGGNTQPATGGLFGGNTQPATGGLFGGNTQPATGGLFGGNTQPATGGLFGGNTQPATGGLFGGNTQPATGGLFGGNTQPATGGLFGGNTQPATGGLFGGNTQPATGGLFGGNTQPATGGLFGGNTQPAT
notes: also called N = 26; 26× repeats; source: E. coli NEB Express, soluble fraction, purified (Ni(II) chelate column, on-column bdSENP1 cleavage, lyophilized); not shown: histidine tag with a SUMO cleavage site, N-terminal, cleaved
For B5, the binding result in data set [1] was “binds”.

These data come from paper PMC9579204, “A simple thermodynamic description of phase separation of Nup98 FG domains” (Nature Communications, 2022).
